Results: article PMC7743911 (Nature communications, 2015)
Residue numbers refer to the chain shown, from its start. Values joined by “and” are separate entries in the source; they are usually repeats but may differ in a detail not shown here. Identical values can stand only once. Non-standard residues stand in square brackets, D forms with d. No end group written: not given here. pY = N[C@@H](Cc1ccc(OP(=O)(O)O)cc1)C(=O)O

Tests used:
[1] = molecular target: T1, STAT5B wild type (residues 128 to 717), non-phosphorylated (human, UniProt P51692 128-717); assay: SPR
T1 sequence (looked up): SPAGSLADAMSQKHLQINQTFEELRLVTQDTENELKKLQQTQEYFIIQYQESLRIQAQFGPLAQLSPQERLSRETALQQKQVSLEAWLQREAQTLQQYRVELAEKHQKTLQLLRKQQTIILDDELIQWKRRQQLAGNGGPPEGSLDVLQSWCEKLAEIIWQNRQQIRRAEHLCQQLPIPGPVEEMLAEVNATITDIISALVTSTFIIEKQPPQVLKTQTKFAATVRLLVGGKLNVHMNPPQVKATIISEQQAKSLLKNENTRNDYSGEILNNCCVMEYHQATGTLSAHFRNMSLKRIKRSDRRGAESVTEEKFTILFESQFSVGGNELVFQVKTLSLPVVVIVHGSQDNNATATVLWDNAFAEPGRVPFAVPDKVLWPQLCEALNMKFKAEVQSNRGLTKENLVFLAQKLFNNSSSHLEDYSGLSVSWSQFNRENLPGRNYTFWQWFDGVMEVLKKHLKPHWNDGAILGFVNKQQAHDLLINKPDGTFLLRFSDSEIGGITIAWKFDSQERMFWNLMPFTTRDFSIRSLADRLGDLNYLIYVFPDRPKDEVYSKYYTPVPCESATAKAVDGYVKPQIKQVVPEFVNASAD

[2] = molecular target: T2, STAT5B N642H mutant (residues 128 to 717), non-phosphorylated (human, UniProt P51692 128-717, N642H); assay: SPR
T2 sequence (looked up): T1 sequence (looked up) with N515H

B1: STAT5B phosphopeptide KAVDG(p)YVKPQI (peptide)
peptide: KAVDG[pY]VKPQI
With B1 the Kd [1] was 15.6 µM and 14 µM and the Kd [2] was 3.23 µM and 2.9 µM.
